Reference: PMC8618983, “Investigation of the Transport Pathways Associated with Enhanced Brain Delivery of Peptide Drugs by Intranasal Coadministration with Penetratin” (Pharmaceutics, 2021)

How the values were obtained:
[1] = parameters: species or system Sprague-Dawley rats; details: rat, in vivo
Protocol: We eluted the peptides with a 50 mM NaHCO3 solution and collected the eluted fractions containing the peptides. […] After adding 15 μL of trimethylamine to the Cy7-ester and peptide solution, we gently stirred the mixed solution overnight in the dark at room temperature. We desalted the resulting solution (1.94 mL) using a PD-10 column, eluted it with PBS (pH 7.4) with 0.001% methyl cellulose, and then adjusted its pH to 6.0. We obtained 4.0–6.0 mL of eluted solution and quantified the peptides by BCA assay or HPLC. We used the same analytical conditions for HPLC as previously described. […] We fed male Sprague-Dawley rats (seven weeks old) a nonfluorescent rodent diet (D10001) for a week before intranasal administration to avoid the intrinsic fluorescence of tissues. […] We performed the surgical procedure described by Hirai et al. to close the nasal cavity. Briefly, we incised the neck and cannulated the trachea and esophagus with polyethylene tubing (Hibiki No. 6) to maintain respiration and keep the solutions in the nasal cavity, respectively. We sealed the nasopalatine ducts with medical super glue (Aron Alpha A Sankyo, Daiichi-Sankyo Co., Ltd., Tokyo, Japan) to prevent the drainage of the solutions from the nasal cavity into the oral cavity. […] At the designated time points after administration (15, 30, and 60 or 120 min), we quickly exsanguinated the rats from the postcaval vein and flushed the administered solution by perfusion of PBS (pH 7.4). We decapitated the rats, carefully isolated the whole brain and right and left trigeminal nerves, and washed them with ice-cold PBS (pH 7.4). We placed the brain samples onto a brain matrix (MK-RC-01, Muromachi Kikai Co., Ltd., Tokyo, Japan) and sliced with blades (TCB-100) into twelve 2 mm-thick fractions. We placed the sliced brain and trigeminal nerve samples on a silicon board and mounted them on the stage of an in vivo imaging system (IVIS Lumina XR, Caliper Life sciences, Inc., Waltham, MA, USA). […] We quantified the fluorescence intensity of the region of interest of the images based on their contrast. To calculate the fluorescence intensity derived from Cy7 in the tissues, we subtracted the intrinsic fluorescence of an untreated area from the total intensity.

[2] = in vivo; cited from earlier work
Source text: During the permeation through the nasal mucosa, drugs come across microvascular vessels in the lamina propria directed toward the systemic circulation before reaching the brain or cerebrospinal fluid (CSF).

Row | Substance | distribution in the trigeminal nerves [1] | distribution ratio (olfactory bulb/trigeminal nerves) [1] | delivery to the brain by intranasal coadministration with L-penetratin [2]
1 | Cy7-Exendin-4: Exendin-4 labeled with the Cy7 fluorescent dye via Cy7 Mono NHS Ester | high even without L-penetratin | dominantly increased | 
2 | Cy7-insulin: insulin labeled with the Cy7 fluorescent dye via Cy7 Mono NHS Ester | high even without L-penetratin | dominantly increased | 
3 | leptin |  |  | significantly increased
